Source: patent CN113583114A (YANG SHENG TANG CO LTD; UNIV XIAMEN, dated 2021)

B1: 人源单克隆抗体6G9 (antibody, V domains shown)
VH: QVQLVQSGAEVKKLGASVKVSCKASGYSFTDYYIHWVRQAPGQGLEWMGWINPISGGTNYAQKFQGRVTMTRDTSITTVYMELSRLRSDDTAVYYCARDLPPYNWNGPLRSQRFDCWGQGTLVTVSS
VL: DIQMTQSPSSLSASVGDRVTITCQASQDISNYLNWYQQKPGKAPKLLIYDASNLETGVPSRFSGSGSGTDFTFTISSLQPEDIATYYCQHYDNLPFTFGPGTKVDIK
B2: 人源单克隆抗体5C6 (antibody, V domains shown)
VH: EVQLVESGGGVVQPGRSLRLSCAASGFTFRTYAMHWVRQAPGKGLEWVAVMWNDGSNKYYADSVKGRFTISRDNSKNTLYLEMNSLRAEDTAVYYCAREGVAAAGSSSDAFDIWGQGTMVTVSS
VL: DIQMTQSPSSLSASVGDRVTITCRASQSISNFLNWYQQKPGKAPKLLIYAASSLQSGVPSRFSGSGSGTDFTLTISSLQPEDFATYYCQQSYSTLYSFGQGTKLEIK
B3: 人源单克隆抗体3C11 (antibody, V domains shown)
VH: EVQLVESGGGLVQPGGSLRLSCAASGFTVSRNYMSWVRQAPGKGLEWVSVIYSGGSTYYADSVKGRFTISRDNSKNTLYLQMNSLRAEDTAVYYCARGLVASYRYGMDVWGQGTTVTVSS
VL: DIQMTQSPVSLSASIGDRVTITCQASQDITNYLNWYQQKPGKAPKLLIYDASNLETGVPSRFSGSGSGTDFTFTISSLQPEDIATYYCHQYDNLPVTFGGGTKVEIK

biological target: SARS-CoV-2Sde18 (SARS-CoV-2 S蛋白, C末端截短18个氨基酸) on VSV pseudovirus SARS-CoV-2VSVpp (SARS-CoV-2, UniProt P0DTC2 14-1255); test: cell-based or functional assay

| Binder | 假病毒感染阻断率 | 半抑制浓度(IC50), 假病毒中和 (GFP阳性细胞数减少) [ng/mL] |
| --- | --- | --- |
| B1 | 80 % (at 0.22 μg/mL) | 0.56 |
| B2 | 80 % (at 0.22 μg/mL) | 4.06 |
| B3 | 80 % (at 0.22 μg/mL) | 62.9 |
